In paper PMC5581337:

Target: HA-NRX2αS1(+) S2(+) S3(+) S4(−) (extracellularly HA-tagged neurexin2α without the insert at splice site 4) (mouse) (UniProt E9Q7X7)
Assay: cell surface binding assay; Scatchard plot analysis of IgSF21-Fc bound to COS-7 cells expressing HA-NRX2αS4(-), n = 30 cells

Substance: IgSF21-Fc (ectodomain of rat IgSF21 fused to the human immunoglobulin Fc region) (from UniProt M0RAS4 25-448) (Fc fusion)
- Kd: 0.021 µM
